Reference: patent publication US20240124607A1 (Merck Sharp & Dohme, published 2024)
Numbering of substitutions follows the chain as printed.

T1: Human CEACAM5 (K398) (human, UniProt P06731 35-685, limits assumed)
T1 construct: also called K398 allele
T1 sequence: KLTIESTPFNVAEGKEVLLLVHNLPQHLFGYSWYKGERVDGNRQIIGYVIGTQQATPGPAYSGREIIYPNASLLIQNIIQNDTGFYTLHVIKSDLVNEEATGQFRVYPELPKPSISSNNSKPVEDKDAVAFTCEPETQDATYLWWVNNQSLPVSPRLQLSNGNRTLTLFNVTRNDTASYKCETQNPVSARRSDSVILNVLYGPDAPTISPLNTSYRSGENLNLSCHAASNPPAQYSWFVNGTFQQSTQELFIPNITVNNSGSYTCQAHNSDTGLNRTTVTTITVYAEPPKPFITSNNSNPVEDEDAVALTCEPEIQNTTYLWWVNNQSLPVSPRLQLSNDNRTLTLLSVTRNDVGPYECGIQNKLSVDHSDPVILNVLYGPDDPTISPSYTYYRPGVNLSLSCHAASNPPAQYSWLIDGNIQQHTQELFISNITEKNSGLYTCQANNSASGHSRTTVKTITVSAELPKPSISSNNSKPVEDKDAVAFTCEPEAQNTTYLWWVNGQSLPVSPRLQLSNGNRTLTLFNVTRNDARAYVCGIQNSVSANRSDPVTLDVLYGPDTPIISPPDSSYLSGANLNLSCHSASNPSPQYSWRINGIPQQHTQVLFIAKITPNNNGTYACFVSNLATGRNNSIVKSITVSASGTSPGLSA

B1: AB0621 F3' CEACAM5 TriNKET (bispecific antibody, human IgG1, kappa)
chain: DIVMTQSPDSLAVSLGERATINCKSSHSLLYGNFQNNYLAWYQQKPGQPPKLLIYWASTRESGVPDRFSGSGSGTDFTLTISSLQAEDVAVYYCQQYYSYPYTFGCGTKLEIKGGGGSGGGGSGGGGSGGGGSQVQLVQSGAEVKKPGASVKVSCKASGYTFTAYTIHWVRQAPGQCLEWMGYINPSSGYTEYNQKFKDRTTLTADTSISTAYMELSRLRSDDTAVYYCTREGGLLWFDYWGQGTLVTVSSGSDKTHTCPPCPAPELLGGPSVFLFPPKPKDTLMISRTPEVTCVVVDVSHEDPEVKFNWYVDGVEVHNAKTKPREEQYNSTYRVVSVLTVLHQDWLNGKEYKCKVSNKALPAPIEKTISKAKGQPREPRVYTLPPCRDELTKNQVSLTCLVKGFYPSDIAVEWESNGQPENNYKTTPPVLVSDGSFTLYSKLTVDKSRWQQGNVFSCSVMHEALHNHYTQKSLSLSPG
heavy: EVQLVESGGGLVKPGGSLRLSCAASGFTFSSYSMNWVRQAPGKGLEWVSSISSSSSYIYYADSVKGRFTISRDNAKNSLYLQMNSLRAEDTAVYYCARGAPIGAAAGWFDPWGQGTLVTVSSASTKGPSVFPLAPSSKSTSGGTAALGCLVKDYFPEPVTVSWNSGALTSGVHTFPAVLQSSGLYSLSSVVTVPSSSLGTQTYICNVNHKPSNTKVDKKVEPKSCDKTHTCPPCPAPELLGGPSVFLFPPKPKDTLMISRTPEVTCVVVDVSHEDPEVKFNWYVDGVEVHNAKTKPREEQYNSTYRVVSVLTVLHQDWLNGKEYKCKVSNKALPAPIEKTISKAKGQPREPQVCTLPPSRDELTENQVSLTCLVKGFYPSDIAVEWESNGQPENNYKTTPPVLDSDGSFFLYSWLTVDKSRWQQGNVFSCSVMHEALHNHYTQKSLSLSPG
light: DIQMTQSPSSVSASVGDRVTITCRASQGISSWLAWYQQKPGKAPKLLIYAASSLQSGVPSRFSGSGSGTDFTLTISSLQPEDFATYYCQQGVSFPRTFGGGTKVEIKRTVAAPSVFIFPPSDEQLKSGTASVVCLLNNFYPREAKVQWKVDNALQSGNSQESVTEQDSKDSTYSLSSTLTLSKADYEKHKVYACEVTHQGLSSPVTKSFNRGEC
B2: AB0264 F3' CEACAM5 TriNKET (bispecific antibody, human IgG1, kappa)
chain: B1 chain with S210P
heavy: B1 heavy
light: B1 light

Columns and labels:
Cynomolgus CEACAM5 [1] = biological target: T2, Cynomolgus CEACAM5 (cynomolgus monkey); test: SPR, anti-hFc capture, 37C, pH 7.4
T2 construct: also called cyno CEACAM5
Experimental: (§1) To determine the affinity and cross-reactivity of CEACAM5 TriNKET molecules, AB0411, AB0466, or AB0621 TriNKETs were captured using an anti-human Fc capture antibody (Cytiva, #BR100839) immobilized onto a Biacore CM5 standard surface sensor chip following manufacturer instructions. Human or cynomolgus CEACAM5 were titrated over captured AB0411, AB0466, and AB0621 as 2-fold serial dilutions starting from 300 nM. Association was monitored for 300 sec and dissociation was monitored for 600 sec. The assay was run at 37° C. at pH 7.4 and 6.0. The surface of the CM5 chip was regenerated with 10 mM glycine pH 1.5 for 20 sec at 100 μL/min.

Cynomolgus CEACAM5 [2] = biological target: T2, Cynomolgus CEACAM5; test: SPR, anti-hFc capture, 37C, pH 6.0
Experimental: as §1

Human CEACAM5 (K398) = biological target: T1, Human CEACAM5 (K398); test: SPR, anti-hFc capture, 37C, pH 7.4
Experimental: as §1

Row | Binder | Kd (Cynomolgus CEACAM5 [1]) [nM] | kon (Cynomolgus CEACAM5 [1]) [M⁻¹ s⁻¹] | Kd (Cynomolgus CEACAM5 [2]) [nM] | kon (Cynomolgus CEACAM5 [2]) [M⁻¹ s⁻¹] | Kd (Human CEACAM5 (K398)) [nM] | kon (Human CEACAM5 (K398)) [M⁻¹ s⁻¹]
1 | B1 | 14 | 61000 | 6.5 | 130000 |  | 
2 | B2 |  |  |  |  | 13 | 91000
